# From IntAct's records for PubMed 10487758
# B1: Protein E6 (Human papillomavirus type 16), P03126 (parent)
# chain: MHQKRTAMFQDPQERPRKLPQLCTELQTTIHDIILECVYCKQQLLRREVYDFAFRDLCIVYRDGNPYAVCDKCLKFYSKISEYRHYCYSLYGTTLEQQYNKPLCDLLIRCINCQKPLCPEEKQRHLDKKQRFHNIRGRWTGRCMSCCRSSRTRRETQL
# Variants of: B1
# Conditions: with ep300_human EP300, Q09472
# ep300_human EP300, Q09472, sequence (Q09472 whole entry): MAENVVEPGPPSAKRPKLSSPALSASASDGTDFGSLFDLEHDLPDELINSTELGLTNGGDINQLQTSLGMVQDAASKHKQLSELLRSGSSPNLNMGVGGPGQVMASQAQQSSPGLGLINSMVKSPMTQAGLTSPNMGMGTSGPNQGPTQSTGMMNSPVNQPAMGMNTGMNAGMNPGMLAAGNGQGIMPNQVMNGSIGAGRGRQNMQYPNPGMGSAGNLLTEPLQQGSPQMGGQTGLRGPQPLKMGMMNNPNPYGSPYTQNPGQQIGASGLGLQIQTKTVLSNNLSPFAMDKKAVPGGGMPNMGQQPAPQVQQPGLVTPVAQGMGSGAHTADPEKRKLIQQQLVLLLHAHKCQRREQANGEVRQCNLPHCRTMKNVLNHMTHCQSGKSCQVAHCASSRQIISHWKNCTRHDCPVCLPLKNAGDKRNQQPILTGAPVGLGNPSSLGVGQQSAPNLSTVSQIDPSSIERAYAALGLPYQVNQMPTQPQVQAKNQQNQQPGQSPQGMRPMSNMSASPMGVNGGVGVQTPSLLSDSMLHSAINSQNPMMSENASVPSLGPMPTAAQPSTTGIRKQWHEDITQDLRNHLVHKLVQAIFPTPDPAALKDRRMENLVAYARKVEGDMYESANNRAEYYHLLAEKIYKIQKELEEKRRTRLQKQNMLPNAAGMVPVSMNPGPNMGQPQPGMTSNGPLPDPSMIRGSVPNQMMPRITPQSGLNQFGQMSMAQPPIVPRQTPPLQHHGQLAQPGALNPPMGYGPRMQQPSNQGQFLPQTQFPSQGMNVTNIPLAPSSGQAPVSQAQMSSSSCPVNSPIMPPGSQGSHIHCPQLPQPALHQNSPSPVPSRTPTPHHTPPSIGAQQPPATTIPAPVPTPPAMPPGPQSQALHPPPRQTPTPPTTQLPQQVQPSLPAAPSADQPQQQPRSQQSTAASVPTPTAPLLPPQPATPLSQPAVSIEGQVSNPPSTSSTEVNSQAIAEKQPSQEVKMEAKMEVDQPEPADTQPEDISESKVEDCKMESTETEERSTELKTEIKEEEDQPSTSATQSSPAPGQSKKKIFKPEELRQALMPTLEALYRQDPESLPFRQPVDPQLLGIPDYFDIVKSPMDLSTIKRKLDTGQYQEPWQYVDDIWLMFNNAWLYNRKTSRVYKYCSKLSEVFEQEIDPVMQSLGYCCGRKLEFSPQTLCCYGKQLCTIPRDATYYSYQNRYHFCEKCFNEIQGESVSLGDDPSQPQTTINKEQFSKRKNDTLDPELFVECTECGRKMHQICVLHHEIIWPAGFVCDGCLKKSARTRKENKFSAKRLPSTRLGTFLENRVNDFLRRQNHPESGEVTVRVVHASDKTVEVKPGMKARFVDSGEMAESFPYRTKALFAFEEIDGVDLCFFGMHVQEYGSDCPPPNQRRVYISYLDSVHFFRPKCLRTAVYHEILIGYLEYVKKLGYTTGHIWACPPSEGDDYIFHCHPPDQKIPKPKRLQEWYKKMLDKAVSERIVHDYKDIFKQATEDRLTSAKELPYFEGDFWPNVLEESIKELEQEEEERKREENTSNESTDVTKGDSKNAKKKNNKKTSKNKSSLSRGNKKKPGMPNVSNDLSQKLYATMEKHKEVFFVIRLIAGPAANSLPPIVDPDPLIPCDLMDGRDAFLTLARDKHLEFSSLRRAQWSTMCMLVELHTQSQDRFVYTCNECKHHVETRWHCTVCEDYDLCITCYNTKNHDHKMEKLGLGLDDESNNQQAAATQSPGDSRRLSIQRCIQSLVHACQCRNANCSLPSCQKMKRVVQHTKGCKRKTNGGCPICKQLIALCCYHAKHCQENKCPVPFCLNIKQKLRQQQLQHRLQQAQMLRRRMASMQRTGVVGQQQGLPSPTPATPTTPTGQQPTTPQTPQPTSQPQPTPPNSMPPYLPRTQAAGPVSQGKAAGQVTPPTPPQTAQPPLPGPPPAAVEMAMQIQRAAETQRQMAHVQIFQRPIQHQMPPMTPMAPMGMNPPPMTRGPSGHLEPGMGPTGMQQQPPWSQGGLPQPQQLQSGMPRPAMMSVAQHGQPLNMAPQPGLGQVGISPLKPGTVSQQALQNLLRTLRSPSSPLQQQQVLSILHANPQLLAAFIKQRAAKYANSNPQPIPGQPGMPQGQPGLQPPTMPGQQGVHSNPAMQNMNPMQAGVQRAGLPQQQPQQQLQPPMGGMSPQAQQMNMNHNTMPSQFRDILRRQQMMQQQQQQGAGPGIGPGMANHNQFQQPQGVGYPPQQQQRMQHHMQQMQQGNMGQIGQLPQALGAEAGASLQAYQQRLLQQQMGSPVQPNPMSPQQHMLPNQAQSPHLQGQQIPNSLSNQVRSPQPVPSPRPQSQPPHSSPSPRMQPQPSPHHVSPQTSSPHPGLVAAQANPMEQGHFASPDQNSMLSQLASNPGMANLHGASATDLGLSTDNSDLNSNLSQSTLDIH
row,Variant,effect of a mutation on the interaction
1,F52Y;F54Y;D56H,disrupting interaction

# Variants of: B1
# Conditions: with ep300_human EP300, Q09472
# Remark: another data set of the same source
row,Variant,effect of a mutation on the interaction
1,F52Y;F54Y;D56H,decreasing interaction
2,R15S;P16A;R17T,decreasing interaction
3,C73G;C143G,disrupting interaction
